From the nanobody polyreactivity screen of Harvey et al. (2022)

Assay: yeast display, Sf9 membrane polyspecificity reagent, FACS + sequencing; frameworks hold sequencing errors
Procedure, shortened: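 Nanobodies from a synthetic yeast display library (Saccharomyces cerevisiae BJ5465), induced 36–48 hours with galactose, were stained 1 hour at 4 °C with 10% biotinylated, detergent-solubilized Sf9 membrane reagent, enriched on streptavidin microbeads, then FACS-sorted. Anti-HA (expression) and streptavidin (reagent binding) fluorescence set low and high (top ~1%) gates. Polyreactivity labels come from the gate of origin. Genes were colony-PCR amplified, MiSeq 2 × 250 sequenced and filtered by CDR length.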

Row | Sequence | polyreactivity (PSR sort gate)
1 | QVQLVESGGGLVQAGGSLRLSCAASGSTFSTNVMGWYRQAPGKERELVAAISTIGGSTYADSVKGRFTISRDNAKNTVYLQMNSQKPEDTAVYYCAKRSRYPYYPYGYWGQGTQVTVSS | high polyreactivity
2 | QVQLVESGGGLVQAGGSLRLSCAASGSTFSVNAMGRYRQATGKERELVATISGGITNYADSVKGRFTISRDNAKNTVYLQMNSLKPEDTAVYYCNTAYRHIWVTWAAYDYWGQGTQVTVSS | low polyreactivity
3 | QVQLVESGGGLVQAGGSLRLSCAASGSTFSVNAMGWYRQAPGKERELVAAISSTGSTKYADSVKGRFTISRDNAKNTVYLQIISLKPEDTAVYCAASNADYEYYPFSDWYFSPYDYWGQGTQVTVSS | low polyreactivity
4 | QVQLVESGGGLVQAGGSLRLSCAASGSTFSVYAMGLYRQAPGKERELVPAITWSGGSTYYADSVKGRFTISRDNAKNTVYLQMNSLKPEDTAVYYCNAERWLATPTVPWYLYNYWGQGTQVTVSS | low polyreactivity
5 | QVQLVESGGGLVQAGGSLRLSCAASGSTFSWNTMGWYRQAPGIERELVAAINSGGSTYYADSVKGRFTISRDNAKNSVYLQMNSLKPEDTAVYYCAADWRGSYLYGYYYWGQGTQVTVSS | low polyreactivity
6 | QVQLVESGGGLVQAGGSLRLSCAASGSTFSWYAMGWYRQAPGKERELVASISFSGGDTSYADSVKGRFTISRDNAKNTVYLQMNSLKPEDTAVYYCGKEYKYETDTKFDYWGQGTQVTVSS | low polyreactivity
7 | QVQLVESGGGLVQAGGSLRLSCAASGSTFSYNAMGWSRQAPGKERELVAAISSAISTNYADSVKGRFTISRDNAKNTVYLQLNSLKPDDTAVYYCNKVPDFVFLISYQLYYTKRLGYWGQGTQVNVSS | low polyreactivity
8 | QVQLVESGGGLVQAGGSLRLSCAASGSTFSYNAMGWYRPAPGKERELVAAISGSGGTTYYADSVKGRFTISRDNAKNTVYLQMNSLKPEDTAVYYCNAYVRRTRDYDYWGQGTQVTVSS | high polyreactivity
9 | QVQLVESGGGLVQAGGSLRLSCAASGSTFSYNAMGWYRQAPGKERELVAAINLRGGNTYYADSVKGRFTNSRDNAKNTVYLQMNSLKPEDTAVYYCARTRRHSQTFDYWGQGTQVIVSS | high polyreactivity
10 | QVQLVESGGGLVQAGGSLRLSCAASGSTFSYNAMGWYRQAPGKERELVAAISGSGGTTYYSDSVKGRFTISRDNAKNTVYLQMNSLKPEDTAVYYCAARPFRSWRYDYWGQGTQVTVSS | low polyreactivity
11 | QVQLVESGGGLVQAGGSLRLSCAASGSTFSYNAMGWYRQAPGKERELVAAISRGDVSTYYADSVKGRFTISRDNAKNTVYLQMNSLKPEDTAVYYCADYWYGSQYKWRYDYWGQGTQVTVSS | low polyreactivity
12 | QVQLVESGGGLVQAGGSLRLSCAASGSTFSYNAMGWYRQAPGKERELVAAISRSGGSTYYADSVKGRFTISRDNAKNTVYLQIKSLKPEFTAVYYFAADSPYGYYEGDYWGQGTQVTVSS | low polyreactivity
13 | QVQLVESGGGLVQAGGSLRLSCAASGSTFSYNAMGWYRQAPGKERELVAAITSGSSTNYADSVKGRFTISRDNAKNTVYLQMNSLKPEDTAVYYCAADGYQDKYYWLENWVGYWGQGTQVTVSS | low polyreactivity
14 | QVQLVESGGGLVQAGGSLRLSCAASGSTFSYNAMGWYRQAPGKERELVATITTGGRTSYADSVKGRFTISRDNAKNTVYLQMNSLKPEDTAVYYCAAVGRFSSRPRVVYYGYDYWGQGTQVTVSS | low polyreactivity
15 | QVQLVESGGGLVQAGGSLRLSCAASGSTFSYNAMGWYRQAPGKVRELVASINSRGGTTYYADSVKGRFTISRDNAKNTVYLQMNSLKPEDTAVYYCATDVYRLGEYDYWGQGTQVTVSS | low polyreactivity
16 | QVQLVESGGGLVQAGGSLRLSCAASGSTFSYYAMGWYRQAPGKERDLVAAISTDGGSTYYADSVKGRFTISRDNAKNTVYLQMNSLKPEDTAVYYCAALVGYYQYVWDLTYTVVEYNYWGQGTQVNVSS | low polyreactivity

Row | Sequence | polyreactivity (PSR sort gate)
17 | QVQLVESGGGLVQAGGSLRLSCAASGSTFSYYAMGWYRQAPGKERELVAAISSRGGSTYYADSVKGRFTISRDNAMNNVYLQMNSLKPEDTAVYFCNADHQFRSSVSGDHDFWGQGTQVTVSS | high polyreactivity
18 | QVQLVESGGGLVQAGGSLRLSCAASGSTFSYYAMGWYRQAPGKERELVAAITYSVGSTYYADSVKGRFTISRDNAKNTVYLQMNSLKPEDTAVYYCNKRYYYSRANYPYDYWGQGTQVTVSS | low polyreactivity
19 | QVQLVESGGGLVQAGGSLRLSCAASGSTFSYYTMGWYRQAPGKERELVAAISFSGGSTYYADSVKGRFTISRDNAKNTVYLQMNSLKPEDTAVYYCAAKGYVGRYDYWGQGTQVTVSS | high polyreactivity
20 | QVQLVESGGGLVQAGGSLRLSCAASGSTFTANAMGWYRQAPGKERELVASISARDGSTYADSVKGRFTISRDNAKKTVYLQMNSLKPEDTAVYYCNAAYFHIFPYDYDYWGQGTQVTVSS | low polyreactivity
21 | QVQLVESGGGLVQAGGSLRLSCAASGSTFTDYDMGWYRQAPGKERELVAAITSGGSTNYADSVKGRCTISRDNAKNTVYLQMNRLKPEDTAVYYWAAADADSKYDYWGQGTQVTVSS | low polyreactivity
22 | QVQLVESGGGLVQAGGSLRLSCAASGSTFTDYDMGWYRQAPGKERELVAAITSGGSTNYADSVKGRITISRDNAKNTVYLQMNSLKPEDTAVYYCAAADADRKYDYWGQGTQVTVSS | low polyreactivity
23 | QVQLVESGGGLVQAGGSLRLSCAASGSTFTDYDMGWYRQAPGTERELVAAITSGCSTNYADSVKGRFTISRDNAKNTVYLQMNSLKPEDTAVYYCAAADADRKYDYWGQGTQVTVTS | low polyreactivity
24 | QVQLVESGGGLVQAGGSLRLSCAASGSTFTEYAMGWYRQAPGKERELVAAITNSGSSTNYEDSVKGRFTISRDNAKNTVYLQMNSLKPEDTAVYYCNASSYPWEYYYLYYGYDYWGQGTQVTVSS | low polyreactivity
25 | QVQLVESGGGLVQAGGSLRLSCAASGSTFTFYAMGSYRQAPGKERELGAAINGRGGSTYYADSVKGRFTISRDNANNTVYLQMNSLKPEDTADYYCATRLYYSVRYNMGYWGQGTQVTVSS | high polyreactivity
26 | QVQLVESGGGLVQAGGSLRLSCAASGSTFTGNAMGWYRQAPGKERELVAAITDRGGSTYADSVKGRFTISRDNAKNTVYLQMNSLKPEDTAVYYCATRRDLHDRYEYDYWGQGTQVTVSS | low polyreactivity
27 | QVQLVESGGGLVQAGGSLRLSCAASGSTFTGNAMGWYRQAPGKERELVASINGSSGSTYYADSVKGRFTISRDNAKNTVYLQMNSLKPEDTAVYYCAKDSFLHFPLVGWVGLEYWGQGTQVTVSS | low polyreactivity
28 | QVQLVESGGGLVQAGGSLRLSCAASGSTFTGNAMGWYRQAPGKERELVASISTGGSTNYADSVKGRFTISRDNAKNTVYLQMNSLKPEDTAVYYCATDYCFKDSVVDFDYWGQGTQVTVSS | low polyreactivity
29 | QVQLVESGGGLVQAGGSLRLSCAASGSTFTGYAMAWYRQAPGKERELVAAISSDGGSTYYADSVKGRFTMSRDNAKNTVYLQMNSLKPEDTAVYYCAALVYVSGYGYYYWGQGTQVTVSS | high polyreactivity
30 | QVQLVESGGGLVQAGGSLRLSCAASGSTFTGYAMGWYRPAPGKESELVAAISISGGRTFYADSVKGRFTISRDNAKNTVYLQMNSLKPEDTSVYYCAVYRRGGVEAFLYWGQGTQVTVSS | high polyreactivity
31 | QVQLVESGGGLVQAGGSLRLSCAASGSTFTGYAMGWYRQAPGKERELVAAISRSGGSTYYADSVKGRFTISRDNAKNTVYLQMNSLKPEDTAVYYCYVDPSARRYVYWGQGTQVTVSS | high polyreactivity
